# Source: the nanobody polyreactivity screen of Harvey et al. (2022)
# Test: yeast display, Sf9 membrane polyspecificity reagent, FACS + sequencing; frameworks hold sequencing errors
# How it was run: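 Nanobodies came from a synthetic yeast display library in Saccharomyces cerevisiae BJ5465, induced with galactose for 36–48 hours and stained for 1 hour at 4 °C with 10% biotinylated, detergent-solubilized Sf9 membrane reagent. Cells were enriched on streptavidin microbeads and then FACS-sorted, with low and high (top ~1%) gates set on anti-HA fluorescence for expression and streptavidin fluorescence for reagent binding. Each polyreactivity label reflects the gate a clone came from. Genes were amplified by colony PCR, sequenced by MiSeq 2 × 250 and filtered by CDR length.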
row,Sequence,polyreactivity (PSR sort gate)
1,QVQLVESGGGLVQAGGSLRLSCAASGFTFVGYPLGWYRQATGKERELVAAISVSGGRTYYADSVKGRFTISRDNAMNTVYLQMKSLNPEDTAVYYCNAASPSYADFDYWGQGTQVTVSS,high polyreactivity
2,QVQLVESGGGLVQAGGSLRLSCAASGFTFVINDLGWYRQAPGKERELVADITSGGDTYYADSVKGRFTISRDNAKNTVYLQMNSLKPEDTAFYYCAADIYPDWIYLLYGYWGQGTQVTVSS,low polyreactivity
3,QVQLVESGGGLVQAGGSLRLSCAASGFTFVINDMGWNRQAPGKERELVADITSGGDTYYADSVKGRFTISRDNAKNTVDLQMNSLKPEDTAVYYCAADIYPDWIYLLYGYWGQGTQVTVSS,low polyreactivity
4,QVQLVESGGGLVQAGGSLRLSCAASGFTFVKNAMGWYRQAPGKERELVAALSSRGGSTYYADSVKGRFTISRDNAKNTVYLQMNSLKPEDTAVYYCATERERTMGYWGQGTQVTVSS,high polyreactivity
5,QVQLVESGGGLVQAGGSLRLSCAASGFTFVPYAMGWYRQAPGKERELVAAISGSGGSTYYADSVKGRFTISRDNAKNTVYLQMNSLKPEDTAVYYCNADRRWAYYWGQGTQVTVSS,high polyreactivity
6,QVQLVESGGGLVQAGGSLRLSCAASGFTFVRYAMGWYRQAPGKERELVAAISSGGRTYYADSVKGRFTISRDNAKNTVYLQMNSLKPEDTAVYYCAADTKFGYGYWGQGTQVTVSS,high polyreactivity
7,QVQLVESGGGLVQAGGSLRLSCAASGFTFVRYAMGWYRQAPGKERELVAAISSGGRTYYADSVKGRFTISRDNAKNTVYLQMNSLKPEDTAVYYCAAEKVGTRPSRDYDYWGQGTQVTVSS,high polyreactivity
8,QVQLVESGGGLVQAGGSLRLSCAASGFTFVRYAMGWYRQAPGKERELVAAISSSGSSTYYADSVKGRFTISRDHEKNTVYLQMNSLKPEDTAVYYCNARAGRGEDYWGQGTQVTVSS,low polyreactivity
9,QVQLVESGGGLVQAGGSLRLSCAASGFTFVRYAMGWYRQAPGKESEFVASISARGGNTFYADSVKGRFTISRDNAKNTVYLQMNSLKPEDTAVYYCAKPGPYGTGYGYWGQGTQVTVSS,high polyreactivity
10,QVQLVESGGGLVQAGGSLRLSCAASGFTFVRYVMGWYRQAPGKERELVAAISRSGGSTHYADSVKGRFTISRDNAKNTVYLQMNSLKPEDTAVYYCAAASPRWPGQGDYWGQGTQVTVSS,high polyreactivity
11,QVQLVESGGGLVQAGGSLRLSCAASGFTFVRYVMGWYRQAPGKERELVAAISRSGGSTHYADSVKGRFTISRDNAKNTVYLQMNSLKPEDTAVYYCADASPRWPGQGDYWGQGTQVTVSS,high polyreactivity
12,QVQLVESGGGLVQAGGSLRLSCAASGFTFVSNAMGWYRQAPGKERELVAVISSGGSTTYADSVKGRFTISRDNAKNTVYLQMNSLKPEDTAVYYCATTNYQDSYEGGDYWGQGTQVTVSS,low polyreactivity
13,QVQLVESGGGLVQAGGSLRLSCAASGFTFVSYAMGWYRQAPGKERELVASITWTGGSTYYADSVKGRFTISRDNAKNTVYLQMNSLKPEDTAVYYDYWGQGTQVTVSS,low polyreactivity
14,QVQLVESGGGLVQAGGSLRLSCAASGFTFVTNAMGWYRQAPGKERELVAAISWNDDDTYYADSVKGRFTISRDNAKNTVYLQMNSLKPEDTAVYYCAKDEYRVKWWGWDIYDYWGQGTQVTVSS,low polyreactivity
15,QVQLVESGGGLVQAGGSLRLSCAASGFTFVWYTMGWYRQAPGKERELVAAISSSGGTTYYADSVKGRFTISRDNAKNTVYLQMNSLKPEDTAVYYCNVAYFYTTPTRGYNYWGQGTQVTVSS,high polyreactivity
16,QVQLVESGGGLVQAGGSLRLSCAASGFTFVYNAMGWYRPAPGKERELVAAITSGGNTYYADSVKGRFTISRDNAKNTVYLQMNSLKPEDTAVYYCAKRGYGRYYAYDYWGQGTQVTVSS,high polyreactivity
17,QVQLVESGGGLVQAGGSLRLSCAASGFTFVYSVMGWYRQAPGKERELVAAINAGGGSTYYADSVKGRFTISRDNAKNTVYLQMNSLKPEDTAVYYCNARVRVRLGRNWSSYYYWGQGTQVTVSS,high polyreactivity
18,QVQLVESGGGLVQAGGSLRLSCAASGFTFVYYAMGWYRQAPGKEREFVATISSRGDSTYYADSVKGRFTISRDNAKNTVYLQMNSLKPEDTAVYYCAADYDRKTRYGYLGQGTQVTVSS,low polyreactivity
19,QVQLVESGGGLVQAGGSLRLSCAASGFTFVYYAMGWYRQAPGKERELVAAISRGGSTYYADSVKGRFTISRDNAQNPVYLQMNSLKPEDTAVYYCNAKKSGHYVSYPAYDYWGQGTQVTVSS,low polyreactivity
20,QVQLVESGGGLVQAGGSLRLSCAASGFTFVYYAMGWYRQAPGKERELVAAISRSGGSTYYADSVKGRFTISRDNAKNTVNLQMNSLKPEDTAVYYCAARKTYGSRLSYEYWGQGTQVTVSS,high polyreactivity
21,QVQLVESGGGLVQAGGSLRLSCAASGFTFVYYTMGWYRPAPRKVRELVAAISSSGGRTSYADSVKGLFTISRDNAKNTVYLQMNSLKPEDTAVYYCAARAYPTWRTYYYWGQGTQVTVSS,high polyreactivity
22,QVQLVESGGGLVQAGGSLRLSCAASGFTFWANAMGWYRQAPGKERELVAAISWSGGSTTYADSVKGRFTISRDNAKNTVYLQMNSLKPEETAVYYCATDYGHYVTYRLSDYWGQGTQVTVSS,low polyreactivity
23,QVQLVESGGGLVQAGGSLRLSCAASGFTFWFYAMGWYRQAPGKEREFVAGISRRGGSTYYADSVKGRFTISRDNAKNTVYLQMNSLKPEDTAVYYCASRQFHNGVTTAGYGYWGQGTQVTVSS,high polyreactivity
24,QVQLVESGGGLVQAGGSLRLSCAASGFTFWRNTMGCSRQAPGKETEFVAAIDWSGGSTTYAVSVKGRFTFSRDNAKNSVYLQMNSLKPEDTAVYYCAAAERRRHYWWGQESDYWGQGTQVTVSS,low polyreactivity
25,QVQLVESGGGLVQAGGSLRLSCAASGFTFWRYAMGWYRQAPGKDRELVAAISWRGSSTYYADSVKGRFTISRDNAMNTVYLQMNSLKPEDTAVSYCARYQSTYDSTYNYWGQGTQVTVSS,high polyreactivity
26,QVQLVESGGGLVQAGGSLRLSCAASGFTFWRYAMGWYRQAPGKERELVAAISRNGGRTYYADSVKGRFTISRDNAKNTVYLQMNSLKPEDTAVYYCAADSDIEYEYWGQGTQVTVSS,high polyreactivity
27,QVQLVESGGGLVQAGGSLRLSCAASGFTFWRYAMGWYRQAPGKERELVAAISRTGGRTYYADSVKGRFTISRDNAKNTVYLQMNSLKPEDTAVYYCAAVKYETYRYNYDYWGQGTQVTVSS,high polyreactivity
28,QVQLVESGGGLVQAGGSLRLSCAASGFTFWVYAMGWYRQATGKEREFVASISWTGDTTYYADSVKGRFTISRDNAKNTVYLQMNSLKPEDTAVYYCAVDTILGYDYWGQGTQVTVSS,low polyreactivity
29,QVQLVESGGGLVQAGGSLRLSCAASGFTFWYNDMGWYRQAPGKEREFVAAITTSGGNTYYADSVKGRFTISRDNAKNTVYLNMNSLIPEDTAVYYCAAEEGSSDATGYDYWGQGTQVTVSS,low polyreactivity
30,QVQLVESGGGLVQAGGSLRLSCAASGFTFWYNDMGWYRQAPGKEREFVAAITTSGGNTYYADSVKGRFTISRDNAKNTVYLQMNSLKPEDTAVYYCAAEEGSSDATGYDYWGQGTQVTVSS,low polyreactivity
